Target: epidermal growth factor (EGF) receptor expressed in 32D mouse myeloid cells (32D/EGFR) (UniProt P00533)

EC50 of AR for IL3-independent proliferation of 32D/EGFR cells, without EGF: 8.3 nM
B1: amphiregulin (ligand)
chain: SVRVEQVVKPPQNKTESENTSDKPKRKKKGGKNGKNRRNRKKKNPCNAEFQNFCIHGECKYIEHLEAVTCKCQQEYFGERCGEKSMK

Source: publication PMC3962550
